{
  "source": "patent US20230348564A1",
  "about": "“ANTI-CANCER PROTEINS” (UNICHEM LABORATORIES LTD, priority 2020, published 2023)",
  "molecules": {"B1": {"name": "SEQ ID NO. 2: recombinant lectin; variant of the S. rolfsii lectin amino acid sequence (reported as Rec-2 in WO 2010/095143) (protein)", "chain": "TYKITVRVYQTNPDAFFHPVEKTVWKYANGGTWTITDDQHVLTMGGSGTSGTLRFHADNGESFTATFGVHNYKRWCDIVTNLAADETGMVINQQYYSQKNREEARERQLSNYQVKNAKGRNFQIVYTEAEGNDLHANLIIG", "modifications": "In vitro synthesis"}},
  "key": {"HGF": {"system": "HGF", "test": "biomarker levels in IOMM-Lee by multiplex analysis", "format": "cell-based, Human", "conditions": "1 μg/mL-80 μg/mL, 48 h", "text": "(§1) Effect of SEQ ID No 2 on the expression of following 7 biomarkers were estimated in Human Meningioma cell line (IOMM-Lee) using multiplex analysis: TNF-alpha, VEGF, VEGFR2, HGF, HGFR/c-MET, PDGF-BB, and Contactin-1. Levels of another marker, Notch-1 were also estimated by ELISA in the same cell line. These 8 biomarkers play very crucial role in the pathogenesis and progression of Brain Tumor. […] Supernatants were collected and the levels of these 8 markers were investigated."}, "PDGF-BB": {"system": "PDGF-BB", "test": "biomarker levels in IOMM-Lee by multiplex analysis", "format": "cell-based, Human", "conditions": "1 μg/mL-80 μg/mL, 48 h", "text": "as §1"}, "HGFR/c-MET": {"system": "HGFR/c-MET", "test": "biomarker levels in IOMM-Lee by multiplex analysis", "format": "cell-based, Human", "conditions": "1 μg/mL-80 μg/mL, 48 h", "text": "as §1"}, "VEGFR2": {"system": "VEGFR2", "test": "biomarker levels in IOMM-Lee by multiplex analysis", "format": "cell-based, Human", "conditions": "1 μg/mL-80 μg/mL, 48 h", "text": "as §1"}, "VEGF": {"system": "VEGF", "test": "biomarker levels in IOMM-Lee by multiplex analysis", "format": "cell-based, Human", "conditions": "1 μg/mL-80 μg/mL, 48 h", "text": "as §1"}, "Contactin-1": {"system": "Contactin-1", "test": "biomarker levels in IOMM-Lee by multiplex analysis", "format": "cell-based, Human", "conditions": "1 μg/mL-80 μg/mL, 48 h", "text": "as §1"}, "TNF-α": {"system": "TNF-α", "test": "biomarker levels in IOMM-Lee by multiplex analysis", "format": "cell-based, Human", "conditions": "1 μg/mL-80 μg/mL, 48 h", "text": "as §1"}, "[1]": {"system": "PBMC (Peripheral blood mononuclear cells)", "test": "cell based in vitro cytotoxicity/anti-proliferation assay (summary)", "conditions": "normal cells", "procedure": "The percentage cytotoxicity was calculated using the statistical tool."}, "Meningioma (IOMM-Lee)": {"system": "Meningioma (IOMM-Lee)", "test": "cytotoxicity in Brain Tumor Cell lines by MTT assay", "conditions": "72 h"}},
  "data": [
    {"molecule": "B1", "values": [
      {"measurement": "Percentage inhibition on levels of HGF", "setting": "HGF", "value": "43.8%-93%^"},
      {"measurement": "Percentage inhibition on levels of PDGF-BB", "setting": "PDGF-BB", "value": "33.6%-100%"},
      {"measurement": "Percentage inhibition on levels of HGFR/c-MET", "setting": "HGFR/c-MET", "value": "5.5%-19.3%"},
      {"measurement": "Percentage inhibition on levels of VEGFR2", "setting": "VEGFR2", "value": "17.8%-22.5%"},
      {"measurement": "Percentage inhibition on levels of VEGF", "setting": "VEGF", "value": "3.9%-49.3%"},
      {"measurement": "Percentage inhibition on levels of Contactin-1", "setting": "Contactin-1", "value": "0.3%-27.2%"},
      {"measurement": "Percentage inhibition on levels of TNF-α", "setting": "TNF-α", "value": "16.8%-42.3%"},
      {"measurement": "% Cytotoxicity", "setting": "PA-1", "value": 72.0, "unit": "%"},
      {"measurement": "% Cytotoxicity", "setting": "[1]; listed as SEQ ID NO 2", "value": "Nil"},
      {"measurement": "% Cytotoxicity", "setting": "[1]; listed as SEQ ID No 2", "value": "did not show cytotoxic effect"},
      {"measurement": "IC50 Value", "setting": "Meningioma (IOMM-Lee)", "value": 18.37, "unit": "µg/mL"},
      {"measurement": "% Cytotoxicity", "setting": "MDA-MB-231", "value": 60.9, "unit": "%"}
    ]}
  ]
}
